This is an account of results in publication PMC3032006.

Holding throughout (assay): AUC
Experiment [1] concerns the target myr(+)MACA-W184A/M185A (HIV-1 (pNL4-3 isolate)).
Experiment [2] has the same target. The source holds these as a separate data set.
For experiment [3], the target named is myristoylated HIV-1 matrix protein, myr(+)MA (HIV-1).
The target is the same in experiment [4]. The source holds these as a separate data set.
For experiment [5] the target is unchanged. This is another data set of the same source.
For experiment [6], the target named is myristoylated HIV-1 matrix-capsid, myr(+)MACA (HIV-1 (pNL4-3 isolate)).
Experiment [7] has the same target. The source holds these as a separate data set.
For experiment [8] the target is unchanged. The source holds these as a separate data set.
Experiment [9] has the same target. This is another data set of the same source.
Experiment [10] deals with unmyristoylated HIV-1 matrix-capsid, myr(−)MACA (HIV-1 (pNL4-3 isolate)).
For experiment [11] the target is unchanged. This is another data set of the same source.
Experiment [12] has the same target. This is another data set of the same source.

Like-named read-outs stand apart in the source and are kept apart here.

For orientation: stoichiometry N means a count of units in the complex or per binding partner. Take “myr(+)MACA-W184A/M185A (domain or fragment)”: the stoichiometry N in experiment [1] and in [2] was 2 in each case.
Consider “myristoylated HIV-1 matrix protein, myr(+)MA (natural protein)”, for which the stoichiometry N in experiment [3], in experiment [4] and in experiment [5] was 3 each time. Besides, the fraction in the 2.4S (trimer) peak of c(s) in [4] was determined as 30%.
Turning to “myristoylated HIV-1 matrix-capsid, myr(+)MACA (domain or fragment)”, the stoichiometry N in experiment [6] stood at 3; in experiment [7] it was 3; in experiment [8] it was 2; in [9], 3. Besides, the Ka in experiment [8] is 33000 M⁻¹. Further, the fraction in the 4.3S (major) peak of c(s) in [8] came out at 70%.
In the case of “unmyristoylated HIV-1 matrix-capsid, myr(−)MACA (domain or fragment)”, the Ka in experiment [10] stood at 110000 M⁻¹; in experiment [12], 33000 M⁻¹. Moreover, the stoichiometry N in experiment [10], in [11] and in [12] was 2 in each case.
